doi:10.1101/701250

Target: APC-TMR (Mus musculus) (UniProt Q61315)
Test: TIRF microscopy in vitro motility assay

For APC-TMR, Q61315 1-2845, the stoichiometry N was 2.
